The values that follow come from patent publication US20220356228A1 (ICAHN SCHOOL OF MEDICINE AT MOUNT SINAI, published 2022).

Assay [1] addresses T1, JCV major capsid protein VP1, wild type (John Cunningham virus (JCV), UniProt P03089 1-354).
T1 construct: also called WT VP1; wild type VP1
Description: ELISA, plates coated with pseudovirus, purified antibody. (In general: An ELISA detects its analyte on a solid surface through an enzyme-linked reagent.)

Assay [2] deals with T2, JCV VP1 mutant S269F (John Cunningham virus (JCV), UniProt P03089 1-354).
T2 construct: also called VP1 S269F; 269m VP1
The assay is described as above.

Assay [3] addresses T3, JCV VP1 mutant L55F (John Cunningham virus (JCV), UniProt P03089 1-354).
T3 construct: also called VP1 L55F; 55m VP1
Described as above.

For assay [4], the target named is T1, JCV major capsid protein VP1, wild type. Description: cell-based or functional assay.
Assay [5] addresses T2, JCV VP1 mutant S269F. Description: cell-based or functional assay.
Assay [6] addresses T3, JCV VP1 mutant L55F. Put plainly: cell-based or functional assay.

Substitutions are numbered along the chain they refer to. Some results are limits rather than exact numbers.

B1: 4D11 (antibody, V domains shown)
VH: QVQLVESGGGLVKPGGSLRLSCAGSGFTFSDHYMSWIRQAPGKGLEWVSYISTSGRTIYYADSVKGRFTISRDNAKNSLYLQMNSLRAEDTAVYYCASDYYDNSGWYYWGQGTLVTVSS
VL: not shown
As usually defined, the EC50 is the concentration needed to bring the measured effect to its halfway point. Read a high EC50 as lower potency in that assay. Turning to B1, the “AB conc. (lowest concentration of antibody that gave a clear signal above background)” value (in assay [1]; with JCV VP1 mutant S269F [2]; with JCV VP1 mutant L55F [3]) was below 2.5 ng/mL each time. Besides, the EC50 in assay [1] worked out at 1.9 ng/mL; in the assay with JCV VP1 mutant S269F [2], 6.9 ng/mL; in the assay with JCV VP1 mutant L55F [3], 7.7 ng/mL. In addition, in assay [4], the “Neutralization of wild type JCV, EC50 [pM]” value was found to be 124 pM. Besides, the “Neutralization of JCV S269F: EC50 [pM]” value with JCV VP1 mutant S269F [5] came to 12.7 pM. Besides, the “Neutralization of JCV L55F: EC50 [pM]” value in the assay with JCV VP1 mutant L55F [6] turned out to be 245 pM.

B2: 1H1 (antibody, V domains shown)
VH: B1 VH with G24A, H32F, K43M, T53F, T57A, K65R, R87S, S104V, Y107D, Q111P
VL: not shown
As for B2, the “AB conc. (lowest concentration of antibody that gave a clear signal above background)” value (in assay [1]; with JCV VP1 mutant S269F [2]; in the assay with JCV VP1 mutant L55F [3]) was below 2.5 ng/mL in each case. For the same molecule, the EC50 was found to be 6.5 ng/mL in assay [1], 7.5 ng/mL with JCV VP1 mutant S269F [2] and 14.7 ng/mL with JCV VP1 mutant L55F [3]. The “Neutralization of wild type JCV, EC50 [pM]” value in assay [4] is 182 pM. In addition, the “Neutralization of JCV S269F: EC50 [pM]” value in the assay with JCV VP1 mutant S269F [5] is 55.3 pM.

B3: 1G8 (antibody, V domains shown)
VH: B1 VH with G24A, H32F, K43M, T53F, T57A, K65R, R87S, S104V, Y107D, Q111P
VL: not shown
With B3, the “AB conc. (lowest concentration of antibody that gave a clear signal above background)” value (in assay [1]; in the assay with JCV VP1 mutant S269F [2]; in the assay with JCV VP1 mutant L55F [3]) was below 2.5 ng/mL each time. Also, the EC50 in assay [1] came out at 7 ng/mL; with JCV VP1 mutant S269F [2], 7.7 ng/mL; with JCV VP1 mutant L55F [3], 16.7 ng/mL. For the same molecule, the “Neutralization of wild type JCV, EC50 [pM]” value in assay [4] was determined as 144 pM. The “Neutralization of JCV S269F: EC50 [pM]” value with JCV VP1 mutant S269F [5] turned out to be 22.7 pM. Moreover, the “Neutralization of JCV L55F: EC50 [pM]” value with JCV VP1 mutant L55F [6] amounted to 511 pM.

B4: 4E2 (antibody, V domains shown)
VH: B1 VH with G24A, H32F, K43M, T53F, T57A, K65R, R87S, S104V, Y107D, Q111P
VL: not shown
Take B4: the “AB conc. (lowest concentration of antibody that gave a clear signal above background)” value is below 7.4 ng/mL in assay [1], below 2.5 ng/mL with JCV VP1 mutant S269F [2] and below 2.5 ng/mL with JCV VP1 mutant L55F [3]. The values for the EC50 (in assay [1]; with JCV VP1 mutant S269F [2]; in the assay with JCV VP1 mutant L55F [3]) were 11.7 ng/mL, 7.1 ng/mL and 13.2 ng/mL, respectively. The “Neutralization of wild type JCV, EC50 [pM]” value in assay [4] turned out to be 160 pM. In addition, the “Neutralization of JCV S269F: EC50 [pM]” value in the assay with JCV VP1 mutant S269F [5] is 30 pM.

B5: 1E8 (antibody, V domains shown)
VH: B1 VH with G24A, R56S, Y107N
VL: DVVMTQSPLSLPVTLGQPASISCRSSQSLVYSDGNTYLNWFQQRPGQSPRRLIYKVSDRDSGVPDRFSGSGSGTDFTLRISRVEAEDVGVYYCMQGSHWPRTFGQGTKVEIK
Consider B5, for which the “AB conc. (lowest concentration of antibody that gave a clear signal above background)” value in assay [1] was below 2.5 ng/mL; with JCV VP1 mutant S269F [2], below 2.5 ng/mL; with JCV VP1 mutant L55F [3], below 22 ng/mL. Moreover, the EC50 was found to be 8 ng/mL in assay [1], 22 ng/mL in the assay with JCV VP1 mutant S269F [2] and 46.5 ng/mL with JCV VP1 mutant L55F [3]. Besides, the “Neutralization of wild type JCV, EC50 [pM]” value in assay [4] came out at 127 pM. Also, in the assay with JCV VP1 mutant S269F [5], the “Neutralization of JCV S269F: EC50 [pM]” value is 55.3 pM. In the assay with JCV VP1 mutant L55F [6], the “Neutralization of JCV L55F: EC50 [pM]” value turned out to be 3380 pM.

B6: 1F11 (antibody, V domains shown)
VH: B1 VH with G24A, H32L, S98G, Y107D, Q111R
VL: not shown
In the case of B6, the “AB conc. (lowest concentration of antibody that gave a clear signal above background)” value was below 7.4 ng/mL in assay [1], below 2.5 ng/mL with JCV VP1 mutant S269F [2] and below 7.4 ng/mL with JCV VP1 mutant L55F [3]. Besides, the EC50 was 9.4 ng/mL in assay [1], 7.6 ng/mL with JCV VP1 mutant S269F [2] and 14.3 ng/mL in the assay with JCV VP1 mutant L55F [3]. In addition, the “Neutralization of wild type JCV, EC50 [pM]” value in assay [4] came out at 111 pM. Further, the “Neutralization of JCV S269F: EC50 [pM]” value with JCV VP1 mutant S269F [5] was determined as 53 pM. For the same molecule, the “Neutralization of JCV L55F: EC50 [pM]” value with JCV VP1 mutant L55F [6] came to 76 pM.

B7: 1E12 (antibody, V domains shown)
VH: B1 VH with A23T, G24A, S54G, S104V, Y107D
VL: B5 VL with M4L, V30I, R79K, S97T
As to B7, the “AB conc. (lowest concentration of antibody that gave a clear signal above background)” value in assay [1] is below 7.4 ng/mL; with JCV VP1 mutant S269F [2] it was below 7.4 ng/mL; with JCV VP1 mutant L55F [3] it was below 2.5 ng/mL. The results for the EC50 (in assay [1]; in the assay with JCV VP1 mutant S269F [2]; in the assay with JCV VP1 mutant L55F [3]) were 8.4 ng/mL, 8.5 ng/mL and 7.7 ng/mL, respectively. In addition, the “Neutralization of wild type JCV, EC50 [pM]” value in assay [4] came to 16 pM. For the same molecule, in the assay with JCV VP1 mutant S269F [5], the “Neutralization of JCV S269F: EC50 [pM]” value worked out at 105 pM. The “Neutralization of JCV L55F: EC50 [pM]” value in the assay with JCV VP1 mutant L55F [6] worked out at 56.7 pM.

B8: 2A11 (antibody, V domains shown)
VH: B1 VH with G24A, A61V, T91M, S104V, Y107N, T113A
VL: B5 VL with M4L, S61F, R79K, V90I, S97T
As to B8, the “AB conc. (lowest concentration of antibody that gave a clear signal above background)” value was below 7.4 ng/mL in assay [1], below 2.5 ng/mL with JCV VP1 mutant S269F [2] and below 7.4 ng/mL in the assay with JCV VP1 mutant L55F [3]. The EC50 is 7.4 ng/mL in assay [1], 6.8 ng/mL with JCV VP1 mutant S269F [2] and 13.6 ng/mL with JCV VP1 mutant L55F [3]. In addition, the “Neutralization of wild type JCV, EC50 [pM]” value in assay [4] worked out at 146 pM. In addition, the “Neutralization of JCV S269F: EC50 [pM]” value in the assay with JCV VP1 mutant S269F [5] worked out at 250 pM. The “Neutralization of JCV L55F: EC50 [pM]” value with JCV VP1 mutant L55F [6] amounted to 45.5 pM.

B9: 1A3 (antibody, V domains shown)
VH: B1 VH with G24A, G26E, F27I, H32Y, V48I, Y60F, E89D, Y100F, Y107E
VL: B5 VL with P12S, R79K, V83A, S97T
As for B9, the “AB conc. (lowest concentration of antibody that gave a clear signal above background)” value (in assay [1]; with JCV VP1 mutant S269F [2]; with JCV VP1 mutant L55F [3]) was below 2.5 ng/mL throughout. The EC50 in assay [1] stood at 7.1 ng/mL; with JCV VP1 mutant S269F [2], 8 ng/mL; with JCV VP1 mutant L55F [3], 14.3 ng/mL. The “Neutralization of wild type JCV, EC50 [pM]” value in assay [4] amounted to 301 pM. Further, the “Neutralization of JCV S269F: EC50 [pM]” value in the assay with JCV VP1 mutant S269F [5] was 37.3 pM. Further, the “Neutralization of JCV L55F: EC50 [pM]” value with JCV VP1 mutant L55F [6] came to 6600 pM.
